Assay results published in patent US20260055186A1 (REPERTOIRE IMMUNE MEDICINES, published 2026).
Like-named read-outs stand apart in the source and are kept apart here.

Experiments:
[1] = target: T1, human CD8 on human T cells (human, UniProt P01732 22-235); experiment: flow cytometry on human CD8+ T cells, titration, apparent KD
T1 construct: whole, on cells; the antibodies were raised against human CD8 alpha; also called CD8 on human CD8+ T cells; hCD8
Protocol: (§1) The 16 above-referenced humanized 03A01-derived anti-CD8 antibodies were screened for their ability to bind human CD8 by evaluating binding to CD8⁺ T cells. The non-humanized parent (“03-Parent”) and the non-humanized parent comprising a heavy chain D64E liability mutation (“03-Parent-VH-D64E”) were used as controls. […] Cells were washed with 1×phosphate buffered saline (PBS) containing 1 mg/mL bovine serum albumin (PBS/BSA) and then stained with a 1:100 dilution of DyLight650-conjugated anti-human IgG H+L polyclonal antibody (ThermoFisher cat. no. Sa5-10129) in PBS/BSA. Following a 20-30 min incubation at 4° C., the cells were washed once with PBS/BSA, and then resuspended in PBS/BSA for analysis on a FACSCelesta using Diva software (BD Biosciences). The resulting data were analyzed using FlowJo. Data were quantified and reported as Max fluorescence intensity (MFI) of human IgG-Fc. […] Complete replacement of the LCDR1 (antibodies comprising VK4) eliminated binding to the CD8⁺ T cells.
(§2) The binding affinities of five of the above-referenced humanized anti-CD8 antibodies to human CD8 were determined by evaluating binding to CD8 human T cells using the method described above. Binding to human CD8+ T cells was tested at 7 serial 5-fold dilutions of each humanized 03A01 variant (from 50 nM to 3.2 pM). The resulting data were analyzed using FlowJo.

[2] = target: T1, human CD8 on human T cells; experiment: flow cytometry on human CD3+ T cells, apparent KD, 4PL fit
Protocol: (§3) The amino acid sequences of the resulting murine anti-CD8 antibodies 02A01, 03A01, 04D08, 05F10, and 11F05 are provided in Tables 1-3 herein above. These antibodies were recombinantly produced. Their binding affinity to CD8 expressed on the cell surface was measured by flow cytometry, and their respective binding affinities are reported in Table 8 and Table 9. Briefly, human or cynomolgus monkey CD3⁺ T cells were incubated with […] of anti-CD8 antibodies (from 250 nM to […]) for 30 minutes. Following the incubation, unbound antibodies were washed away, and the bound antibodies were detected with a AlexaFluor-647-labeled anti-human Fc detection antibody. The median fluorescence intensity of AlexaFluor-647 on the live cells was used to evaluate anti-CD8 antibody levels on the cell surface. Binding affinity (KD) values for anti-CD8 antibody T cell binding were determined with GraphPad Prism 7.0 using 4-Parameter logistic regression.

[3] = target: T1, human CD8 on human T cells; experiment: flow cytometry on human CD8+ T cells, titration
Protocol: as §1, §2

[4] = target: T2, cynomolgus monkey CD8 on cynomolgus cells (cynomolgus monkey); experiment: flow cytometry on cynomolgus CD3+ T cells, apparent KD, 4PL fit
T2 construct: whole, on cells; also called cynomolgus CD8
Protocol: as §3

[5] = target: T1, human CD8 on human T cells; experiment: flow cytometry on human CD8+ T cells, titration; remark: listed apart in the source
Protocol: (§4) The 24 humanized 02A01-derived anti-CD8 antibodies (excluding 02A01-VK3(D30E/N35Q)) were screened for their ability to bind human CD8 by evaluating binding to CD8+ T cells. The non-humanized parent (“02-Parent”) and the non-humanized parent comprising a heavy chain M39L liability mutation (“02-Parent-VH-M39L”) were used as controls. […] Cells were washed with 1×phosphate buffered saline (PBS) containing 1 mg/mL bovine serum albumin (PBS/BSA) and then stained with a 1:100 dilution of DyLight650-conjugated anti-human IgG H+L polyclonal antibody (ThermoFisher cat. no. Sa5-10129) in PBS/BSA. Following a 20-30 min incubation at 4° C., the cells were washed once with PBS/BSA, and then resuspended in PBS/BSA for analysis on a FACSCelesta using Diva software (BD Biosciences). The resulting data were analyzed using FlowJo. Data were quantified and reported as Max fluorescence intensity (MFI) of human IgG-Fc. […] Complete replacement of the HCDR1 (antibodies comprising VH5) eliminated binding to the CD8+ T cells.
(§5) Binding to human CD8+ T cells was tested at 7 serial 5-fold dilutions of each tested humanized 02A01 variant (from 50 nM to 3.2 pM). The resulting data were analyzed using FlowJo.

[6] = target: T3, human CD8α/β (human, UniProt P01732 22-182; P10966 22-170); experiment: SPR, antibody captured on Protein A chip, hCD8α/β as analyte, 1:1 fit
T3 construct: Soluble heterodimer used in SPR and in the Carterra binning (there printed only as CD8α/β); also called hCD8α/β
T3 sequence (P01732 22-182, chain 1 of 2): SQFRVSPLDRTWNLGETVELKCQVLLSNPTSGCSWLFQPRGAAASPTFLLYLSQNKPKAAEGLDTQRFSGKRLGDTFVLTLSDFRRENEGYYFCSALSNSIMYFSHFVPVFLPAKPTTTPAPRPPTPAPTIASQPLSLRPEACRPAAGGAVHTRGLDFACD
T3 sequence (P10966 22-170, chain 2 of 2): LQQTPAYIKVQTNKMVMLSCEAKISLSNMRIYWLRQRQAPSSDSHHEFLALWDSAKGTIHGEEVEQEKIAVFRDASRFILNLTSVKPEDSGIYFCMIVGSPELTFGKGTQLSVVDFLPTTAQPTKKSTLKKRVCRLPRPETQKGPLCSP
Protocol: (§6) The binding affinities of six of the humanized anti-CD8 antibodies to human CD8 were also determined by surface plasmon resonance (SPR). Briefly, equilibrium dissociation constants for human CD8α/β were determined using a real-time SPR biosensor using a Protein A Sensor Chip (Cytiva) to capture purified anti-CD8 monoclonal antibodies at a concentration of 0.5 nM. SPR binding studies were performed in a buffer composed of Phosphate buffered saline, pH 7.2 containing 0.05% v/v Surfactant P20 (PBS-P20 buffer). Different concentrations of hCD8α/β prepared in PBS-P20 running buffer (ranging from 500 nM to 7.8 nM, 2-fold dilutions) were injected over the anti-CD8 monoclonal antibody captured surface. Association of hCD8α/β to the captured monoclonal antibody was monitored for 400 seconds and the dissociation of hCD8α/β in PBS-P20 running buffer was monitored for 600 sec. All of the binding kinetics experiments were performed at 25° C. Kinetic association (kₐ) and dissociation (kd) rate constants were determined by fitting the real-time sensorgrams to a 1:1 binding model using Scrubber 2.0c curve fitting software.

[7] = target: T1, human CD8 on human T cells; experiment: flow cytometry on human CD8+ T cells, titration, apparent KD; remark: listed apart in the source
Protocol: as §4, §5

[8] = target: T3, human CD8α/β; experiment: SPR, antibody captured on Protein A chip, hCD8α/β as analyte
Protocol: as §6

[9] = target: T1, human CD8 on human T cells; experiment: flow cytometry, human CD8+ T cells, antibody at 0.2 nM, anti-human IgG detection (MFI AF647)
Protocol: as §4

[10] = target: T1, human CD8 on human T cells; experiment: flow cytometry, human CD8+ T cells, antibody at 5 nM, anti-human IgG detection (MFI AF647)
Protocol: as §1

T1 sequence (P01732 22-235): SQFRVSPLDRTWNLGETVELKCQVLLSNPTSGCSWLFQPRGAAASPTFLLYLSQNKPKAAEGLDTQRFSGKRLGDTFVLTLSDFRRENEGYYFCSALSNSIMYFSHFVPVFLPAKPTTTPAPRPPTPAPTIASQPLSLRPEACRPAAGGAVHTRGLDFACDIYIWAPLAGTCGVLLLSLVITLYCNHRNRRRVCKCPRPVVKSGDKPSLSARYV

Binder	Kd [2]	Kd [4]	binding result [9]	binding result [10]	also measured
Murine 03A01 (antibody, V domains shown, Recombinantly produced IgG; also called 03-parental; 03-Parent) VH: DVQFQESGPGLVKPSQSLSLTCTVTGYSITSDFAWNWIRQFPGNELEWMGYISYSGDTNYNPSLRSRISITRDTSKNQFFLQLDSVTTEDTATYYCTIRGYYTDSAFVFWGQGTLVTVSA VL: DIQMTQSSSYLSVSLGGRVTITCKASDHINNWLAWYQQKPGNAPRLLISGATSLETGVPSRFTGSGSGLDYTLSITSLQTEDVATYYCQQYWNSPFTFGSGTKLEIK	0.86 nM	1.77 nM	–	–	Kd [1]: 0.926 nM; Fold Change to Parental Apparent KD [3]: 1 fold
Murine 02A01 (antibody, V domains shown, Recombinantly produced IgG; also called 02-parental; 02-Parent) VH: EVQLQQSGPELVKPGASLKISCKASGYTFTDFTMHWVKQSHGKSLEWIGLVNPNNGGNIYNQNFKGKATLTVDTSSSTAYMELRSLTSEDSSVYYCGRVPLYTSHGMDYWGQGTSVTVSS VL: DIVLTQSPAFLAVSLGQRATISCRASESVDSYDINSMHWYQQKPGQPPKLLIYRASHLQSGIPARFSGSGSRTDFTLTINFVEADDVATYYCQQSNEDPLTFGAGTKLELK	0.047 nM	0.075 nM	–	–	Fold Change to Parental Apparent KD [5]: 1 fold; Maximum CD8+ T cell Binding (MFI) [5]: 2900 MFI; Kd [6]: 9.29 nM; Kd [7]: 0.057 nM; Fold Change to Parental Calculated KD [8]: 1 fold
humanized 02A01-VH5-VK1 (antibody, human IgG1, V domains shown, human IgG1 format; VH5 has the HCDR1 of the top human germline hit) VH: EVQLVQSGAEVKKPGATLKISCKASGYTFTDYYMHWVQQAPGKGLEWIGLVNPNNGGNIYNQNFKGRATLTVDTSTSTAYMELSSLRSEDTSVYYCGRVPLYTSHGMDYWGQGTLVTVSS VL: EIVLTQSPATLSVSPGERATISCRASESVDSYDINSMHWYQQKPGQPPRLLIYRASHLQSGIPARFSGSGSRTDFTLTISSVEPEDFATYYCQQSNEDPLTFGQGTKLEIK	–	–	no binding (tested: 0.2 nM)	–	–
humanized 02A01-VH5-VK2 (antibody, human IgG1, V domains shown, human IgG1 format; VH5 has the HCDR1 of the top human germline hit) VH: EVQLVQSGAEVKKPGATLKISCKASGYTFTDYYMHWVQQAPGKGLEWIGLVNPNNGGNIYNQNFKGRATLTVDTSTSTAYMELSSLRSEDTSVYYCGRVPLYTSHGMDYWGQGTLVTVSS VL: EIVLTQSPATLSVSPGERATISCRASESVDSYDINSMHWYQQKPGQAPRLLIYRASHLQSGIPARFSGSGSRTDFTLTISSVEPEDFATYYCQQSNEDPLTFGQGTKLEIK	–	–	no binding (tested: 0.2 nM)	–	–
humanized 02A01-VH5-VK3 (antibody, human IgG1, V domains shown, human IgG1 format; VH5 has the HCDR1 of the top human germline hit) VH: EVQLVQSGAEVKKPGATLKISCKASGYTFTDYYMHWVQQAPGKGLEWIGLVNPNNGGNIYNQNFKGRATLTVDTSTSTAYMELSSLRSEDTSVYYCGRVPLYTSHGMDYWGQGTLVTVSS VL: EIVLTQSPATLSLSPGERATISCRASESVDSYDINSMHWYQQKPGQAPRLLIYRASHLQSGIPARFSGSGSRTDFTLTISSLEPEDFATYYCQQSNEDPLTFGQGTKLEIK	–	–	no binding (tested: 0.2 nM)	–	–
05F10 (antibody, V domains shown, Recombinantly produced murine anti-CD8 IgG) VH: EVQLVESGGGLVKPGGSLKLSCAASGFTFSSFAMSWVRQTPAKRLEWVATISSGDLSANYPDTVKGRFTISRDNAKNTLYLQMSSLRSEDTAMYYCTRPPFYFSNDWFAYWGQGTLVTVSA VL: DVVMTQTPLSLPVSLEDQASISCRSSQSLEHSNGNTYLHWYLQKPGQSPRLLIYKVSNRFSGVPDRFSGSGSGTDFTLKISRVEAEDLGVYFCSQSTHVPFTFGSGTKLEIK	0.242 nM	39.8 nM	–	–	–
humanized 03A01-VH2-VK4 (antibody, human IgG1, V domains shown, human IgG1 format; VK4 has the LCDR1 of the top human germline hit) VH: EVQFQESGPGLVKPSQTLSLTCTVSGYSITSDFAWNWIRQPPGKGLEWMGYISYSGDTNYNPSLRSRITISRDTSKNQFSLKLSSVTAADTAVYYCTIRGYYTDSAFVFWGQGTLVTVSS VL: DIQMTQSPSTLSVSVGDRVTITCRASQSISSWLAWYQQKPGKAPKLLISGATSLETGVPSRFSGSGSGLEYTLTISSLQPDDFATYYCQQYWNSPFTFGQGTKLEIK	–	–	–	no binding (tested: 5 nM)	–
humanized 03A01-VH3-VK4 (antibody, human IgG1, V domains shown, human IgG1 format; VK4 has the LCDR1 of the top human germline hit) VH: EVQFQESGPGLVKPSQTLSLTCTVSGYSITSDFAWNWIRQPPGKGLEWMGYISYSGDTNYNPSLKSRVTISRDTSKNQFSLKLSSVTAADTAVYYCTIRGYYTDSAFVFWGQGTLVTVSS VL: DIQMTQSPSTLSVSVGDRVTITCRASQSISSWLAWYQQKPGKAPKLLISGATSLETGVPSRFSGSGSGLEYTLTISSLQPDDFATYYCQQYWNSPFTFGQGTKLEIK	–	–	–	no binding (tested: 5 nM)	–
humanized 03A01-VH4-VK4 (antibody, human IgG1, V domains shown, human IgG1 format; VK4 has the LCDR1 of the top human germline hit) VH: EVQFQESGPGLVKPSQTLSLTCTVSGYSITSDFAWNWIRQPPGKGLEWIGYISYSGDTYYNPSLKSRVTISRDTSKNQFSLKLSSVTAADTAVYYCTIRGYYTDSAFVFWGQGTLVTVSS VL: DIQMTQSPSTLSVSVGDRVTITCRASQSISSWLAWYQQKPGKAPKLLISGATSLETGVPSRFSGSGSGLEYTLTISSLQPDDFATYYCQQYWNSPFTFGQGTKLEIK	–	–	–	no binding (tested: 5 nM)	–
